Reference: the supplement of paper PMC10724198
± gives the standard deviation of the averaged measurements.

Tests used:
[1] = test system: Saccharomyces cerevisiae; test: protein stability index of tFT-peptide fusion in wild type (PSI (0-1 scale)); higher = more stable (slower turnover); conditions: genetic background: wild type
Experimental: (§1)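 MPS profiling in S. cerevisiae of two library types built from selected 12-aa C-degron peptides (IN1, IN2, LN1, LN3, VN2, R1-R5, W1-W3, Atg1 and Rpa12 C-termini): saturation mutagenesis libraries and C-terminal +1 capping libraries (13 aa). Each peptide is fused to the C-terminus of a sfGFP-mCherry timer, after a GGGS linker. Cells are FACS-sorted into 8 mCherry/sfGFP bins and sequenced. PSI runs from 0 (unstable) to 1 (stable), measured once in wild type and in the das1Δ or doa10Δ background.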

[2] = test system: Saccharomyces cerevisiae; test: protein stability index of tFT-peptide fusion in deletion strain of DOA10 (PSI (0-1 scale)); higher = more stable (slower turnover)
Experimental: as §1

[3] = test system: Saccharomyces cerevisiae; test: protein stability index of tFT-peptide fusion (C-terminal peptide) (PSI (0-1 scale)); higher = more stable (slower turnover)
Experimental: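 MPS profiling in S. cerevisiae of the tFT-X12 degron library: putative degron peptides plus stable controls, 12 aa, fused to the C-terminus of a sfGFP-mCherry timer. Cells are FACS-sorted into 8 mCherry/sfGFP bins and deep-sequenced. PSI runs from 0 (unstable) to 1 (stable). Backgrounds are wild type, das1Δ and doa10Δ at 30 °C, and wild type, das1Δ, cdc34-1 and cdc53-1 at 37 °C; 2-3 technical replicates each.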

[4] = test system: Saccharomyces cerevisiae; test: as above; conditions: genetic background: wild type; temperature: 30 C
[5] = test system: Saccharomyces cerevisiae; test: protein stability index of tFT-peptide fusion in deletion strain of DAS1 (PSI (0-1 scale)); higher = more stable (slower turnover)
Experimental: as §1
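Wherever protein stability index of tFT-peptide fusion (C-terminal peptide) is given: PSI is a weighted mean of sequencing reads over stability bins, variants kept only with over 10 reads, mCherry proximal and sfGFP distal, peptide attached via GGGS linker.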
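Wherever protein stability index of tFT-peptide fusion in deletion strain of DAS1 is given: PSI is a weighted mean of each variant's read distribution over the sorted stability bins, computed only for variants having over 10 reads in total.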
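Wherever protein stability index of tFT-peptide fusion in deletion strain of DOA10 is given: PSI per variant is the weighted mean of its sequencing read distribution over the sorted stability bins, counting only variants with over 10 reads summed across bins.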
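Wherever protein stability index of tFT-peptide fusion in wild type is given: PSI derived as read-weighted mean over the 8 sorting bins, only variants exceeding 10 total reads kept, mCherry placed adjacent to the peptide and sfGFP distal.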

| Sequence | protein stability index [1] | protein stability index [2] | protein stability index [5] | also measured |
| --- | --- | --- | --- | --- |
| RVTRLDAIYFRS | 0.641 | 0.72 |  |  |
| CLVSLPILLFWR | 0.0447 | 0.638 |  |  |
| RVTRLDAIYRRI | 0.684 | 0.721 |  |  |
| CLFSLPILLFFR | 0.0583 | 0.581 |  |  |
| AITLPMLPLLLR | 0.125 | 0.633 |  |  |
| RVTRLAAIYFRI | 0.173 | 0.38 |  |  |
| RVTRLDAIYFYI | 0.425 | 0.449 |  |  |
| RVTRLDAAYFRI | 0.653 | 0.704 |  |  |
| PSLAASFWRVVG | 0.146 |  | 0.686 | protein stability index ([3]; genetic background: cdc34-1, temperature: 37 C): 0.595 ± 0.1; protein stability index ([3]; genetic background: cdc53-1, temperature: 37 C): 0.749 ± 0.016; protein stability index ([3]; genetic background: das1 deletion, temperature: 30 C): 0.694 ± 0.051; protein stability index ([3]; genetic background: das1 deletion, temperature: 37 C): 0.7397 ± 0.0053; protein stability index ([3]; genetic background: doa10 deletion, temperature: 30 C): 0.102 ± 0.031; protein stability index ([3]; genetic background: wild type, temperature: 30 C): 0.109 ± 0.037; protein stability index ([3]; genetic background: wild type, temperature: 37 C): 0.243 ± 0.0024; protein stability index [4]: 0.197 ± 0.013 |
| GLYMCSMGCWFR | 0.321 | 0.676 |  |  |
| CLCSLPILLFFR | 0.106 | 0.615 |  |  |
| CLVSLPISLFFR | 0.101 | 0.656 |  |  |
| AITLPMCPLLSR | 0.573 | 0.594 |  |  |
| RSLRVLLPLYFRW | 0.215 | 0.677 |  |  |
| AITEPMCPLLLR | 0.593 | 0.648 |  |  |
| RETRLDAIYFRI | 0.545 | 0.667 |  |  |
| AITLPMCPLLRR | 0.62 | 0.717 |  |  |
| CLVSLPILLFHR | 0.481 | 0.637 |  |  |
| CLVCLPILLFFR | 0.104 | 0.494 |  |  |
| CLVSLPIYLFFR | 0.0617 | 0.607 |  |  |
| GLYMCSVGCWFRS | 0.267 | 0.521 |  |  |
| AITLPMCPLLLK | 0.269 | 0.653 |  |  |

| Sequence | protein stability index [1] | protein stability index [2] | protein stability index [5] | also measured |
| --- | --- | --- | --- | --- |
| GLYMCSVKCWFR | 0.415 | 0.462 |  |  |
| RVTRLDAIYFRIF | 0.0593 | 0.0962 |  |  |
| CITLPMCPLLLR | 0.118 | 0.635 |  |  |
| CLVSLPILIFFR | 0.0649 | 0.53 |  |  |
| GLYMCSVGDWFR | 0.677 | 0.689 |  |  |
| CLVSLPILGFFR | 0.625 | 0.661 |  |  |
| GLYMCSVGMWFR | 0.307 | 0.577 |  |  |
| CLVSLPILLFYR | 0.116 | 0.585 |  |  |
| RVTRLDAIYFRIQ | 0.218 | 0.256 |  |  |
| RSLRVWLPLYFR | 0.166 | 0.693 |  |  |
| GLYMCSVGCWGR | 0.625 | 0.659 |  |  |
| RVTRLDAIYFRT | 0.546 | 0.703 |  |  |
| AIYLPMCPLLLR | 0.268 | 0.617 |  |  |
| RVTPLDAIYFRI | 0.547 | 0.675 |  |  |
| RWTRLDAIYFRI | 0.337 | 0.528 |  |  |
| AYTLPMCPLLLR | 0.171 | 0.657 |  |  |
| CLVSLPILLFFQ | 0.313 | 0.53 |  |  |
| RVTRLDAIYFRG | 0.664 | 0.701 |  |  |
| CLVSLPCLLFFR | 0.064 | 0.639 |  |  |
| AITLPMCELLLR | 0.511 | 0.676 |  |  |
| RLIQPLQVQFLN | 0.0288 |  | 0.63 |  |
| CTSCGYKFRTWN | 0.288 |  | 0.727 |  |

| Sequence | protein stability index [1] | protein stability index [2] | protein stability index [5] | also measured |
| --- | --- | --- | --- | --- |
| PDKRNHLIKNLN | 0.473 |  | 0.54 |  |
| CTSYGYKFRTNN | 0.145 |  | 0.688 |  |
| FSMRWTFRYAVN | 0.158 |  | 0.585 |  |
| QRGAVGGWRLVG | 0.161 |  | 0.655 |  |
| CTSCGSKFRTNN | 0.549 |  | 0.692 |  |
| VRGAVGGWVLVG | 0.202 |  | 0.659 |  |
| RLIQPLPVRFLN | 0.0593 |  | 0.6 |  |
| LRVYLSCVACIN | 0.0194 |  | 0.121 |  |
| ARWRVGCWRGAS | 0.524 |  | 0.637 |  |
| PRKRNHLIKLLN | 0.141 |  | 0.633 |  |
| FSMRWTFRYWVNA | 0.163 |  | 0.496 |  |
| PDSRNHLIKLLN | 0.125 |  | 0.6 |  |
| CTSCGYKFLTNN | 0.332 |  | 0.696 |  |
| NRGAVGGWRLVG | 0.164 |  | 0.665 |  |
| PDKRNHLINLLN | 0.113 |  | 0.605 |  |
| ARWRVGLIRGAS | 0.561 |  | 0.665 |  |
| PDRRNHLIKLLN | 0.118 |  | 0.664 |  |
| LKIDRQKMNHQN | 0.241 |  | 0.676 |  |
| ARWRVGLWRGASN | 0.658 |  | 0.689 |  |
| PDKTNHLIKLLN | 0.144 |  | 0.658 |  |
| PDKRNRLIKLLN | 0.141 |  | 0.592 |  |
| KKHKKGQKQKVN | 0.208 |  | 0.599 |  |

| Sequence | protein stability index [1] | protein stability index [2] | protein stability index [5] | also measured |
| --- | --- | --- | --- | --- |
| LVVYLSQVACIN | 0.0161 |  | 0.0854 |  |
| KKHKRGQKQKIN | 0.0579 |  | 0.617 |  |
| PDARNHLIKLLN | 0.12 |  | 0.612 |  |
| FSMRWTKRYWVN | 0.0745 |  | 0.545 |  |
| LVVYLSCDACIN | 0.144 |  | 0.191 |  |
| LKILRQKMNHQNV | 0.669 |  | 0.662 |  |
| ARWRVGLWRGDS | 0.667 |  | 0.688 |  |
| PDKRNHLIKLLT | 0.205 |  | 0.622 |  |
| KKHKQGQKQKIN | 0.0536 |  | 0.73 |  |
| RVVYLSCVACIN | 0.0144 |  | 0.0603 |  |
| LKILNQKMNHQN | 0.395 |  | 0.688 |  |
| PSLAASEWRVVG | 0.535 |  | 0.703 |  |
| PMKRNHLIKLLN | 0.069 |  | 0.569 |  |
| LKMLRQKMNHQN | 0.171 |  | 0.683 |  |
| PYKRNHLIKLLN | 0.141 |  | 0.6 |  |
| AMWRVGLWRGAS | 0.43 |  | 0.65 |  |
| ARWRVGLWRQAS | 0.0958 |  | 0.678 |  |
| HRWRVGLWRGAS | 0.457 |  | 0.676 |  |
| LKILRQNMNHQN | 0.255 |  | 0.667 |  |
| EKHKKGQKQKIN | 0.178 |  | 0.613 |  |
| FSMRWTFMYWVN | 0.0968 |  | 0.456 |  |
| CTSCGYKFRTNNL | 0.723 |  | 0.715 |  |

| Sequence | protein stability index [1] | protein stability index [2] | protein stability index [5] | also measured |
| --- | --- | --- | --- | --- |
| PSLAASFWQVVG | 0.465 |  | 0.692 |  |
| RLIQPLPVQRLN | 0.0805 |  | 0.643 |  |
| VRGIVGGWRLVG | 0.171 |  | 0.682 |  |
| CTSCPYKFRTNN | 0.261 |  | 0.666 |  |
| LKILRQKMNHCN | 0.191 |  | 0.669 |  |
| LVVYLSCVNCIN | 0.135 |  | 0.419 |  |
| ARWWVGLWRGAS | 0.508 |  | 0.742 |  |
| VRGAVGGWRLVC | 0.143 |  | 0.634 |  |
| GKILRQKMNHQN | 0.263 |  | 0.677 |  |
| RLIQPWPVQFLN | 0.0573 |  | 0.545 |  |
| PDKRNHLIKLLH | 0.154 |  | 0.612 |  |
| LVVYLMCVACIN | 0.0154 |  | 0.0335 |  |
| PDKENHLIKLLN | 0.265 |  | 0.602 |  |
| RLIQYLPVQFLN | 0.0219 |  | 0.637 |  |
| RLIQPLPVQGLN | 0.659 |  | 0.739 |  |
| KKHKKGQKQKWN | 0.305 |  | 0.587 |  |
| ARWRVGLWRGASY | 0.653 |  | 0.69 |  |
| PSLAASFWRVQG | 0.155 |  | 0.672 |  |
